Laboratory results reported in PMC11286415.

How the values were obtained:
[1] = test system: WT MCP3 (Trypanosoma brucei); assay: ITC; settings: 1 mM Mg2+; unmodified in vitro transcript; ITC: 20 mM MOPS pH 7.8, 100 mM NaCl, 2 mM DTE, 1 mM MgCl2, 25 C, 30 uM protein in cell, 300 uM tRNA in syringe; SEC-MALS: preincubation 27 C, run at 4 C …
[2] = test system: ΔN MCP3 (Trypanosoma brucei); assay: ITC; settings: unmodified in vitro transcript; ITC: 20 mM MOPS pH 7.8, 100 mM NaCl, 2 mM DTE, 1 mM MgCl2, 25 C, 30 uM protein in cell, 300 uM tRNA in syringe; SEC-MALS: preincubation 27 C, run at 4 C …
[3] = target: Trypanosoma brucei multi-aminoacyl-tRNA synthetase complex (MSC)-associated protein 3 (MCP3), wild type (Trypanosoma brucei); assay: SEC-MALS; 300 ug protein at 3 mg/mL in 100 uL; 30 mM Tris-HCl pH 8.0, 100 mM NaCl, 5 mM MgCl2, 2 mM DTT; incubated at 27°C for 1 h; Superdex 200 Increase 10/300 GL, 0.5 mL/min; no tRNA
[4] = target: Trypanosoma brucei multi-aminoacyl-tRNA synthetase complex (MSC)-associated protein 3 (MCP3), wild type (Trypanosoma brucei); assay: ITC; dimer to monomers: 250 uM WT MCP3 in the syringe injected into buffer in the cell (50 mM glycylglycine pH 8.0, 300 mM NaCl, 2 mM DTE); 13 injections of 1 uL, 25°C

tRNAPro gave a Kd [1] of 1050 nM and a Kd [2] of 809 nM.

For “Trypanosoma brucei multi-aminoacyl-tRNA synthetase complex (MSC)-associated protein 3 (MCP3), wild type (enzyme)”, the stoichiometry N [3] was 2 and the Kd [4] was 2600 nM.

In the case of tRNAAla, the Kd [1] is reported as 1120 nM.
